B1: INTS3 (parent)
chain: FHPIKETVVEEPVDITPYLDQLDE

Variants of: B1
Experiment: protein stability index of a GFP-peptide fusion (GPS, HEK-293T) (PSI 1-6); higher = more stable
Details: c terminus: a fixed tail appended
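Also: lentivirally expressed fusions sorted by FACS into six bins by GFP to DsRed ratio, PSI derived from sequencing read proportions per bin multiplied by bin number.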

Variant | protein stability index
FHPIKETVVEEPVDITPYLDDLDE [Q21D] | 3.51
FHPIKETVVEEPVDITPYLDKLDE [Q21K] | 3.05
FHPIKETVVEEPVDITPYLDALDE [Q21A] | 3.73
FHPIKETVVEEPVDITPYLDHLDE [Q21H] | 3.26
FHPIKETVVEEPLDITPYLDQLDE [V13L] | 3.22
FHPIKETVVEEPYDITPYLDQLDE [V13Y] | 3.2
FHPIKETVVEEPSDITPYLDQLDE [V13S] | 3.67
FHPIKETVVEEPDDITPYLDQLDE [V13D] | 3.83
FHPIKETVVEEPQDITPYLDQLDE [V13Q] | 3.25
FHPIKETVVEEPADITPYLDQLDE [V13A] | 3.61
FHPIKMTVVEEPVDITPYLDQLDE [E6M] | 2
FHPIKGTVVEEPVDITPYLDQLDE [E6G] | 3.04
FHPIKLTVVEEPVDITPYLDQLDE [E6L] | 1.9
FHPIKWTVVEEPVDITPYLDQLDE [E6W] | 1.91
FHPIKSTVVEEPVDITPYLDQLDE [E6S] | 2.52
FHPIKETVVEEPVDIEPYLDQLDE [T16E] | 3.75
FHPIKETVVEEPVDIVPYLDQLDE [T16V] | 3.14
FHPIKETVVEEPVDIQPYLDQLDE [T16Q] | 3.79
FHPIKETVVEEPVDIPPYLDQLDE [T16P] | 3
FHPIKETVVEEPVDINPYLDQLDE [T16N] | 3.18
FHPIKETVVEEPVDIMPYLDQLDE [T16M] | 3.73
FHPIKETTVEEPVDITPYLDQLDE [V8T] | 3.53
FHPIKETIVEEPVDITPYLDQLDE [V8I] | 2.88
FHPIKETDVEEPVDITPYLDQLDE [V8D] | 3.9

Variant | protein stability index
FHPISETVVEEPVDITPYLDQLDE [K5S] | 4.99
FHPIKETVVEEPVDKTPYLDQLDE [I15K] | 3.86
FHPIKETVVEEPVDTTPYLDQLDE [I15T] | 4.26
FHPIKETVVEEPVDVTPYLDQLDE [I15V] | 3.98
FHPIKETVVEEPVDRTPYLDQLDE [I15R] | 4.13
FHPIKETVVEEMVDITPYLDQLDE [P12M] | 2.65
FHPIKETVVEEKVDITPYLDQLDE [P12K] | 3.04
FHPIKETVVYEPVDITPYLDQLDE [E10Y] | 1.8
FHPIKETVVFEPVDITPYLDQLDE [E10F] | 1.54
FHPIKETVVSEPVDITPYLDQLDE [E10S] | 2.54
FHPIKETVVGEPVDITPYLDQLDE [E10G] | 2.8
FHPIKETVVKEPVDITPYLDQLDE [E10K] | 1.84
FHPIKETVVEEPVDITPYLDQLDR [E24R] | 2.33
FHPIKETVVEEPVDITPYLDQLDD [E24D] | 3.75
FHPIKETVVEEPVDITPYLDQLDT [E24T] | 3.09
FHPIKETVVEEPVDITPYLDQLDM [E24M] | 2.83
FHPIKETVVEEPVSITPYLDQLDE [D14S] | 2.75
FHPIKETVVEEPVTITPYLDQLDE [D14T] | 3.18
FHPIKETVVEEPVFITPYLDQLDE [D14F] | 1.93
FHPIKETVVEEPVDITPLLDQLDE [Y18L] | 3.88
FHPIKETVVEEPVDITPWLDQLDE [Y18W] | 3.11
FHPIKETVVEEPVDITPCLDQLDE [Y18C] | 3.47
FHPIKETVVEEPVDITPYLDQLRE [D23R] | 2.63
FHPIKETVVEEPVDITPYLDQLCE [D23C] | 2.48

Variant | protein stability index
FHPIKETVVEEPVDITPYLDQGDE [L22G] | 3.41
FHPIKETVVEEPVDITPYLDQYDE [L22Y] | 3.16
FHPIKETVVEEPVDITPYLDQQDE [L22Q] | 4.11
FHPIKETVVEEPVDITPYLDQSDE [L22S] | 3.13
FHPIKETVVEEPVDITPYLDQPDE [L22P] | 3.61
FHPIKETVVEEPVDITIYLDQLDE [P17I] | 2.49
FHPIKETVVEEPVDITMYLDQLDE [P17M] | 3.17
FHPIKETVVEEPVDITCYLDQLDE [P17C] | 3.17
FHPIKEQVVEEPVDITPYLDQLDE [T7Q] | 3.26
FHPIKERVVEEPVDITPYLDQLDE [T7R] | 3.04
FHPIKETVVEMPVDITPYLDQLDE [E11M] | 2.93
FHPIKETVVENPVDITPYLDQLDE [E11N] | 2.98
FHPIKETVVECPVDITPYLDQLDE [E11C] | 2.78
FHPIKETVVETPVDITPYLDQLDE [E11T] | 2.54
FHPIKETVVEAPVDITPYLDQLDE [E11A] | 2.73
FHPIKETVVEIPVDITPYLDQLDE [E11I] | 1.77
FVPIKETVVEEPVDITPYLDQLDE [H2V] | 2.16
FAPIKETVVEEPVDITPYLDQLDE [H2A] | 4.34
FHPAKETVVEEPVDITPYLDQLDE [I4A] | 2.98
FHPNKETVVEEPVDITPYLDQLDE [I4N] | 3.85
FHPWKETVVEEPVDITPYLDQLDE [I4W] | 2.87
FHPEKETVVEEPVDITPYLDQLDE [I4E] | 4.06
FHPIKETVLEEPVDITPYLDQLDE [V9L] | 3.19
FHPIKETVEEEPVDITPYLDQLDE [V9E] | 4.25

Variant | protein stability index
FHPIKETVKEEPVDITPYLDQLDE [V9K] | 3.3
FHPIKETVNEEPVDITPYLDQLDE [V9N] | 3.81
FHPIKETVTEEPVDITPYLDQLDE [V9T] | 3.22
FHPIKETVQEEPVDITPYLDQLDE [V9Q] | 3.77
FHPIKETVVEEPVDITPYVDQLDE [L19V] | 4.03
FHPIKETVVEEPVDITPYRDQLDE [L19R] | 3.14
FHPIKETVVEEPVDITPYGDQLDE [L19G] | 3.32
FHPIKETVVEEPVDITPYWDQLDE [L19W] | 2.56
FHPIKETVVEEPVDITPYIDQLDE [L19I] | 3.12
FHPIKETVVEEPVDITPYHDQLDE [L19H] | 3.18
FHYIKETVVEEPVDITPYLDQLDE [P3Y] | 2.75
FHIIKETVVEEPVDITPYLDQLDE [P3I] | 2.66
FHVIKETVVEEPVDITPYLDQLDE [P3V] | 4.19
FHTIKETVVEEPVDITPYLDQLDE [P3T] | 3.43
LHPIKETVVEEPVDITPYLDQLDE [F1L] | 5.28
SHPIKETVVEEPVDITPYLDQLDE [F1S] | 5.58
QHPIKETVVEEPVDITPYLDQLDE [F1Q] | 5.65
HHPIKETVVEEPVDITPYLDQLDE [F1H] | 5.5
DHPIKETVVEEPVDITPYLDQLDE [F1D] | 5.78
GHPIKETVVEEPVDITPYLDQLDE [F1G] | 5.5
FHPIKETVVEEPVDITPYLSQLDE [D20S] | 3.3
FHPIKETVVEEPVDITPYLQQLDE [D20Q] | 2.41
